Target: monkey CD22 on HEK293T-monkey CD22 cells (monkey)
Assay: FACS, HEK293T-monkey CD22 cells

monkey CD22 on HEK293T-monkey CD22 cells (monkey), sequence (chain, as listed by the source limits assumed): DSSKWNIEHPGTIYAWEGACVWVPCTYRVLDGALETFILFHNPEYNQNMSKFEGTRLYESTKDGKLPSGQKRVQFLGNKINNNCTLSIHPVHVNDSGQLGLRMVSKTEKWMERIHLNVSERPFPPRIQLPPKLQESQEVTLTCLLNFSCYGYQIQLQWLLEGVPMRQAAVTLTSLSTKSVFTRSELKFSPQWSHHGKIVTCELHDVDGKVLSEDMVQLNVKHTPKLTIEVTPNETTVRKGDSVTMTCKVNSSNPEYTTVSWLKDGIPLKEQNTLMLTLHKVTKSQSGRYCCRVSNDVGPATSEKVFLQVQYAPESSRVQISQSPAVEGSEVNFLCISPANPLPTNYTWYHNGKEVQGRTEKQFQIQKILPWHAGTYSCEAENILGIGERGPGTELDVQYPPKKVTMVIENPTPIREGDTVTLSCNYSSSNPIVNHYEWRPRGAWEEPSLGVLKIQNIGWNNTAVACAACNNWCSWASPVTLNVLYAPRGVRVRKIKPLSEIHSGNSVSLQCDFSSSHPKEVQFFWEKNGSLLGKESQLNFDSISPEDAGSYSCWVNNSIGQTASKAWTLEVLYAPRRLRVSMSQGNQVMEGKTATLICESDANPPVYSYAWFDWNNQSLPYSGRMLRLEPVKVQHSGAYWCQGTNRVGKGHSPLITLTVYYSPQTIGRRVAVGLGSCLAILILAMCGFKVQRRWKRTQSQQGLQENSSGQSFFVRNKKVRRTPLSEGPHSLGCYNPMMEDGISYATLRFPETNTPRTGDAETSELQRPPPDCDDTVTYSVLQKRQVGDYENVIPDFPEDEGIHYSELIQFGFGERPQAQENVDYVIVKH

B1: F1.280.1 (antibody, human IgG1, kappa, V domains shown)
VH: QIQLVQSGPELKKPGETVKISCKASGYTFTTYGMSWVKQTPGKGLTWMGWINTDSGVPTYADDFKRRFAFSLEASATTAYLQINNLKNEDTATYFCARGGPDYWGQGTTLTVSS
VL: DILLTQSPATLSVTPGETVSLSCRASQSIYKNLHWYHQKSHRSPRLLIKYASDSISGIPSRFTGSGSGTNFTLSINSVKPEDEGIYYCLQGYIVPLTFGAGTKLELKR
A Maximum mean fluorescence intensity of 1490 MFI was found for B1 in this work.
